These results are taken from US20230365659A1 (EPSILON MOLECULAR ENGINEERING, published 2023).

B1: Bacillus subtilis-derived VHH-COVE1 (VHH)
VHH: AEVQLVESGGGLVQPGGSLRLSCAASGFAFSSYPMYWVRQAPGKGLEWISFIDGEGTSTSYADSVKGRFTISRDNAKNTVYLQMNSLKPEDTAVYYCNALLRRYNYGFTFDNYWGQGTQVTVSSGGGSHHHHHH
B2: Bacillus subtilis-derived VHH-COVE4 (VHH)
VHH: AEVQLVESGGDVVQPGGSLRLSCAASGFTFTTYAMTWVRQAPGEGLEAVSTISGADGSTYYADSVKGRFTISRDNANNTVYLQMNSLKPEDTAVYYCAATPWYSASHTYWGQGTQVTVSSGGGSHHHHHH
B3: VHH-COVE9-R108K (VHH)
VHH: AEVQLVESGGGLVQPGGSLRLSCAASGTIFSTNAMSWYRQAPGKQRELVAAITSGGNTNYADSVKGRFTISRDNAKNTVYLQMNSLKPEDTAVYYCNAPGVVTGSYDVKNYWGQGTQVTVSSGSHHHHHH
B4: VHH-COVE9-N109D (VHH)
VHH: AEVQLVESGGGLVQPGGSLRLSCAASGTIFSTNAMSWYRQAPGKQRELVAAITSGGNTNYADSVKGRFTISRDNAKNTVYLQMNSLKPEDTAVYYCNAPGVVTGSYDVRDYWGQGTQVTVSSGSHHHHHH
B5: VHH-COVE9-Y110S (VHH)
VHH: AEVQLVESGGGLVQPGGSLRLSCAASGTIFSTNAMSWYRQAPGKQRELVAAITSGGNTNYADSVKGRFTISRDNAKNTVYLQMNSLKPEDTAVYYCNAPGVVTGSYDVRNSWGQGTQVTVSSGSHHHHHH
B6: Bacillus subtilis-derived VHH-COVE8 (VHH)
VHH: EVQLVESGGGLVQPGGSLTLSCAASGQTFSSYNMAWFRQSPGKEREFVATISWGGGSTGYADSVKGRFTISRDHAKNTVYLQMKDLKPEDTGAYYCYLVGLFGIQASDYWGQGTQVTVSS
B7: Bacillus subtilis-derived VHH-COVE2 (VHH)
VHH: AEVQLVESGGGLVQAGDSLRLSCAATRRTSSTYAMGWFRQAPGKGLEWVAAISWDGGRTYYAESVKGRFTISRDNAKNTVYLQMNSLKPEDTAVYYCYSFGGSDFLMDYWGQGTQVTVSSGGGSHHHHHH
B8: Bacillus subtilis-derived VHH-COVE7 (VHH)
VHH: EVQLVESGGGLVQAGDSLRLSCTASGRTFSSCAMGWFRQAPGKEREFVAAISRGGGSTSYADSVKGRFTISKDRARNTAYLEMNSLKPEDTAIYYCYAVFPSGGDYWGQGTQVTVSS
B9: Bacillus subtilis-derived VHH-COVE5 (VHH)
VHH: EVQLVESGGGLVQAGGSLRLSCTASDQIFDNYNMAWFRQSPGKEREFVAALSWGDSNTGYADSVKGRFTISRDNAKNTVYLQMNSLKPEDTAVYYCYAVTWLRGDYWGQGTQVTVSS
B10: Bacillus subtilis-derived VHH-COVE9 (VHH)
VHH: EVQLVESGGGLVQPGGSLRLSCAASGTIFSTNAMSWYRQAPGKQRELVAAITSGGNTNYADSVKGRFTISRDNAKNTVYLQMNSLKPEDTAVYYCNAPGVVTGSYDVRNYWGQGTQVTVSS
B11: Bacillus subtilis-derived VHH-COVE3 (VHH)
VHH: AEVQLVESGGGFVQAGGSLRLSCRVSAPTFMTYTMAWFRQAPGNEREFVAALSKNFVTTSYADSVKGRFTISRDNAKNTVYLQMNSLKPEDTAVYYCNVAWSDYEYLEVWGQGTLVTVSSGGGSHHHHHH

The first test has as its target T1, SARS-CoV-2 (2019-nCoV) spike S1-Fc recombinant protein (Sino Biological, Inc.) (SARS-CoV-2, UniProt P0DTC2 16-685).
Assay: not given
As a reminder, the Kd is the free concentration of one partner at which half of the binding sites on the other are occupied at equilibrium, for simple one-to-one binding. Broadly, the koff is the first-order rate constant of dissociation. The kon is the second-order rate constant of association. As for B1, the Kd is 3.63 nM, the koff came out at 0.00028 s⁻¹ and the kon is 77000 M⁻¹ s⁻¹.

In the case of B2, the Kd is 0.997 nM, the koff is 0.000114 s⁻¹ and the on-rate constant (kon) amounted to 115000 M⁻¹ s⁻¹.

A further test concerns the target T1, SARS-CoV-2 (2019-nCoV) spike S1-Fc ….
Assay: not given
The source holds these as a separate data set.
For B3, the Kd amounted to 3.28 nM, the koff was determined as 0.000437 s⁻¹ and the kon is 133000 M⁻¹ s⁻¹. As to B4, the Kd worked out at 8.38 nM, the koff stood at 0.00106 s⁻¹ and the kon was 126000 M⁻¹ s⁻¹.

In the case of B5, the Kd is 4.74 nM, the koff stood at 0.000683 s⁻¹ and the kon is 144000 M⁻¹ s⁻¹.

The next test has as its target Trimeric SARS-CoV-2 spike antigen full-length (Bio-Serv) (SARS-CoV-2, UniProt P0DTC2 14-1273). In words: ELISA, VHH on nickel plate, spike in solution (0-500 ng/mL).
Regarding B6, the “absorbance (450 nm)” value turned out to be 0.97. Consider B7, for which the “absorbance (450 nm)” value came to 0.97. Consider B8, for which the “absorbance (450 nm)” value was 0.97. As to B9, the “absorbance (450 nm)” value is 0.97. On to B10, for which the “absorbance (450 nm)” value was 0.97.

Turning to B11, the “absorbance (450 nm)” value is 0.97.
